Assay results from paper PMC3229523, “Identification of Lactoferricin B Intracellular Targets Using an Escherichia coli Proteome Chip” (PLoS ONE, 2011).
Ends that are not written are not given here. * marks the point of attachment. Biotin = O=C1N[C@H]2[C@H](CS[C@H]2CCCCC(=O)*)N1

Tests used:
Experiment in all cases: peptide or protein array; E. coli proteome chip: purified His-tagged proteins printed in duplicate on Fullmoon slides, blocked with 1% BSA; 10 nM N-terminal biotinylated LfcinB with 1% BSA, room temperature, 1 h; detected with DyLight 649-labeled streptavidin, ratio to DyLight 549-labeled anti-His antibody; ProCAT normalisation, local cut-off; triplicate chips
Conditions in all cases: both partners purified
[1] = target: T1, HolB (E. coli K-12, UniProt P28631 1-334)
T1 construct: HolB, E. coli K-12
T1 sequence (P28631 whole entry): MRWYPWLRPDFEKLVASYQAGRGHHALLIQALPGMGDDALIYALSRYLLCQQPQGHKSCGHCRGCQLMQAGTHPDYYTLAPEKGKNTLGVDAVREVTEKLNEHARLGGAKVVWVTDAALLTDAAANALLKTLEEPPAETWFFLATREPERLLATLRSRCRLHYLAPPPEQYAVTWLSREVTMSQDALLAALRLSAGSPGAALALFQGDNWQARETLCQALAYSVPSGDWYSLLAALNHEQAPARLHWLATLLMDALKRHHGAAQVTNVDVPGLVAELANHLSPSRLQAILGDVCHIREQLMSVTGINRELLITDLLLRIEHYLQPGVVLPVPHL

[2] = target: T2, SfmH (E. coli K-12, UniProt P75715 25-327)
T2 construct: SfmH, E. coli K-12
T2 sequence (looked up): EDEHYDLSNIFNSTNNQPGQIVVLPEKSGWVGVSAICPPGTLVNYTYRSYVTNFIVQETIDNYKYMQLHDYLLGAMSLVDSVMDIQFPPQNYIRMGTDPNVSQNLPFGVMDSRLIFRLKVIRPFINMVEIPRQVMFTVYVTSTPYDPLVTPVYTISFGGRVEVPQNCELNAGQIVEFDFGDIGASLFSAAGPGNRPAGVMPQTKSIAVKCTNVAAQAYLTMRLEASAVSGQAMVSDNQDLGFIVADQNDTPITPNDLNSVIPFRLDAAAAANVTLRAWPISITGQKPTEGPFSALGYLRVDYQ

[3] = target: T3, RfaS (E. coli K-12, UniProt P27126 1-311)
T3 construct: RfaS, E. coli K-12
T3 sequence (looked up): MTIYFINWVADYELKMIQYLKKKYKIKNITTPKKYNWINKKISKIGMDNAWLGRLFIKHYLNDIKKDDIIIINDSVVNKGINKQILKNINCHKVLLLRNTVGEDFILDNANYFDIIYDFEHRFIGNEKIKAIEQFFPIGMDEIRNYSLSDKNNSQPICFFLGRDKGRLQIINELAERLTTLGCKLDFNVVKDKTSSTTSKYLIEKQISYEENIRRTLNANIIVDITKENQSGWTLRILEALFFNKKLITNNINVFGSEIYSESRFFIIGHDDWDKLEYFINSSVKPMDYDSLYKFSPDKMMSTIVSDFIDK

[4] = target: T4, WcaL (E. coli K-12, UniProt P71243 1-406)
T4 construct: WcaL, E. coli K-12
T4 sequence (looked up): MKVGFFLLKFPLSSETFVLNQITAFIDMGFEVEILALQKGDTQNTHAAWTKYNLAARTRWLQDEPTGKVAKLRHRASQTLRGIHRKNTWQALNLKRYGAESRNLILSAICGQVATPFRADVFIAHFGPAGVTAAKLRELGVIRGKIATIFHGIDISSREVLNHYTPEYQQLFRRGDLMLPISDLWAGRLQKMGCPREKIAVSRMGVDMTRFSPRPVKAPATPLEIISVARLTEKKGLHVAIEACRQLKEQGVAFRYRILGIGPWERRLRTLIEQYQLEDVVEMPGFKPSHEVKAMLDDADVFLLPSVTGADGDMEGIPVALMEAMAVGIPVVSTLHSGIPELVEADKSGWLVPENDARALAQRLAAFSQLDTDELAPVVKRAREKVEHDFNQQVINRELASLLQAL

[5] = target: T5, adenylate cyclase CyaA (E. coli K-12, UniProt P00936 1-848)
T5 construct: CyaA, adenylate cyclase, E. coli K-12
T5 sequence (looked up): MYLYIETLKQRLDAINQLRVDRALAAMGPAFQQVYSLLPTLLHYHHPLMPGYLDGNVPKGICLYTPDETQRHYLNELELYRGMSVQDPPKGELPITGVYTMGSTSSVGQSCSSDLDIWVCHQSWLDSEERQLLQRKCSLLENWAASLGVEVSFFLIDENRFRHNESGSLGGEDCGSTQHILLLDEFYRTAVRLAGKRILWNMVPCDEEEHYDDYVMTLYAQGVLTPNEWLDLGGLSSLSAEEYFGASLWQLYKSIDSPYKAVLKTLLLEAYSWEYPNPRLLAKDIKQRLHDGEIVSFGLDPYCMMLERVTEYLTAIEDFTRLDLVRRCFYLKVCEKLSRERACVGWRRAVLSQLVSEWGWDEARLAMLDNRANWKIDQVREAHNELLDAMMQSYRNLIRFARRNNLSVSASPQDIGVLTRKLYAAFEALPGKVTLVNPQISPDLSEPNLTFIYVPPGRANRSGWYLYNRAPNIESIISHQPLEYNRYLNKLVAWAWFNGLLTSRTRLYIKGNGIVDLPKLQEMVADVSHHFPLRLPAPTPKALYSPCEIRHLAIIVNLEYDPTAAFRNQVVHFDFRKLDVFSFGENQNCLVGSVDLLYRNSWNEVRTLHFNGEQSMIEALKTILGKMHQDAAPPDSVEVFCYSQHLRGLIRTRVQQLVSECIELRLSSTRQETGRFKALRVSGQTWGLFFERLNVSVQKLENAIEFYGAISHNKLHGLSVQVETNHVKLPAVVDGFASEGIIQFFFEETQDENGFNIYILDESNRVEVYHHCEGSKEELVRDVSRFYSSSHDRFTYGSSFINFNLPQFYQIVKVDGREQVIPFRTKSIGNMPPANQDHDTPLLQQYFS

Measured: binding result

B1: N-terminal biotinylated Lactoferricin B (peptide, UniProt P24627 36-60, looked up)
peptide: Biotin-FKCRRWQWRMKKLGAPSITCVRRAF
modifications: ends and bridges not checked
notes: lactoferricin B (LfcinB), cationic antimicrobial peptide of 25 amino acids; also called biotinylated LfcinB; biotin-labeled LfcinB; source: bought: Kelowna Inc
binds: all assays above
